Assays:
Assay in all cases: ELISA: 500 ng peptide coated per well, 29E4 at 40 ng/mL, HRP goat anti-rabbit Ig 1:16,000, ABS 450 nm, duplicates [CONT. 2]
[1] = target: T1, P3 (alanine substituted, FIG. 3 panel E)
T1 construct: not the overlapping peptide P3 of panel A; also called R213 to alanine
Description: (§1) HRP Goat anti-rabbit Ig was applied at 1:16,000 dilution in all reactions.
(§2) Peptides were synthesized to achieve ≥70% HPLC purity by a commercial vendor (GenScript Biotech, Piscataway, NJ). Peptides were reconstituted in either water, or with addition of acetonitrile, methanol, 10% acetic acid, or DMSO, depending on the overall charge of each peptide. Key residues required for mAb binding were probed by ELISA using overlapping peptides, truncated peptides and alanine substituted peptides. Reactions were performed in duplicate using NUNC 96-well flatbottom MaxiSorp plates (Thermo Scientific). After coating each well with 500 ng of peptide in 100 μL coating buffer (50 mM NaHCO₃, pH 9.6), the plates were sealed and incubated at 4° C. overnight. […] Plates were then washed once with wash buffer, incubated with 100 μL mAb 29E4 (serially diluted from 1 mg/mL) for 1 hour at 37° C. Plates were further washed four times with wash buffer, and then incubated at 37° C. with 100 μL of a horse radish peroxidase (HRP)-conjugated secondary antibody against the primary antibody, diluted 1:16,000 according to manufacturer's protocols (KPL, Inc., Gaithersburg, MD). After washing four times with wash buffer, 100 μL of K-Blue Aqueous TMB substrate (Neogen, Lexington, KY) was added to the plates and incubated uncovered for 30 minutes at room temperature. To stop the reaction, 100 μL of 2 N Sulphuric acid was added to each well and absorbance were measured immediately at 450 nm. All dilutions of reagents were performed in ELISA diluent (20% NGS in 1×PBS with 0.1% Triton-X 100).

[2] = target: T2, P23 (alanine substituted, FIG. 3 panel E)
T2 construct: also called D233 to alanine
T2 sequence (peptide, as listed by the source): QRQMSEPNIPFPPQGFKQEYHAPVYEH
Description: as §1, §2

[3] = target: T3, P22 (alanine substituted, FIG. 3 panel E)
T3 construct: also called H232 to alanine
T3 sequence (peptide, as listed by the source): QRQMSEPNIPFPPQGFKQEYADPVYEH
Description: as §1, §2

[4] = target: T4, P28 (alanine substituted, FIG. 3 panel E)
T4 construct: also called H238 to alanine
T4 sequence (peptide, as listed by the source): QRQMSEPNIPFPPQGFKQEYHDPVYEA
Description: as §1, §2

[5] = target: T5, P20 (alanine substituted, FIG. 3 panel E)
T5 construct: also called E230 to alanine
T5 sequence (peptide, as listed by the source): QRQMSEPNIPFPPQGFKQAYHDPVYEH
Description: as §1, §2

[6] = target: T6, P2 (alanine substituted, FIG. 3 panel E)
T6 construct: not the overlapping peptide P2 of panel A; also called Q212 to alanine
T6 sequence (peptide, as listed by the source): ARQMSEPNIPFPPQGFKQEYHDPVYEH
Description: as §1, §2

[7] = target: T7, P5 (alanine substituted, FIG. 3 panel E)
T7 construct: not the overlapping peptide P5 of panel A; also called M215 to alanine
T7 sequence (peptide, as listed by the source): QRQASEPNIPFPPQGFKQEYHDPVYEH
Description: as §1, §2

[8] = target: T8, P9 (alanine substituted, FIG. 3 panel E)
T8 construct: also called N219 to alanine
T8 sequence (peptide, as listed by the source): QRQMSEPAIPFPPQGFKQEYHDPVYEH
Description: as §1, §2

[9] = target: T9, P10 (alanine substituted, FIG. 3 panel E)
T9 construct: also called I220 to alanine
T9 sequence (peptide, as listed by the source): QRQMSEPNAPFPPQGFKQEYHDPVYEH
Description: as §1, §2

[10] = target: T10, P8 (alanine substituted, FIG. 3 panel E)
T10 construct: also called P218 to alanine
T10 sequence (peptide, as listed by the source): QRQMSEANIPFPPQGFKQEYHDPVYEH
Description: as §1, §2

[11] = target: T11, P24 (alanine substituted, FIG. 3 panel E)
T11 construct: also called P234 to alanine
T11 sequence (peptide, as listed by the source): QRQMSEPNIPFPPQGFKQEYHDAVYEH
Description: as §1, §2

[12] = target: T12, P7 (alanine substituted, FIG. 3 panel E)
T12 construct: not the overlapping peptide P7 of panels A and C; also called E217 to alanine
T12 sequence (peptide, as listed by the source): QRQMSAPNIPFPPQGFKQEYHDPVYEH
Description: as §1, §2

[13] = target: T13, P21 (alanine substituted, FIG. 3 panel E)
T13 construct: also called Y231 to alanine
T13 sequence (peptide, as listed by the source): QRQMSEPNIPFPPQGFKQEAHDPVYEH
Description: as §1, §2

[14] = target: T14, P11 (alanine substituted, FIG. 3 panel E)
T14 construct: also called P221 to alanine
T14 sequence (peptide, as listed by the source): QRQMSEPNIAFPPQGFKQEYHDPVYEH
Description: as §1, §2

[15] = target: T15, P4 (alanine substituted, FIG. 3 panel E)
T15 construct: not the overlapping peptide P4 of panel A; also called Q214 to alanine
T15 sequence (peptide, as listed by the source): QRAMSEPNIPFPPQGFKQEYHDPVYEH
Description: as §1, §2

T1 sequence (peptide, as listed by the source): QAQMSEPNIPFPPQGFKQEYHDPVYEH

- binding result [1]: binds
- binding result [2]: binds
- binding result [3]: binds
- binding result [4]: binds
- binding result [5]: binds
- binding result [6]: binds
- binding result [7]: binds
- binding result [8]: binds
- binding result [9]: binds
- binding result [10]: binds
- binding result [11]: binds
- binding result [12]: binds
- binding result [13]: binds
- binding result [14]: binds
- binding result [15]: binds
B1: ETV1 rabbit monoclonal antibody (29E4) (antibody, V domains shown)
VH: QELEESGGDLVKPGASLTLTCTASGFFFSAENHICWVRQAPGKGLEWIGCVYIGSYVGGSGDPYYASWAKGRFTISKTSSTTVTLQMSSLTAADTATYFCARDLGSLWGPGTLVTVSS
VL: DVVMTQTASSVSAAVGGTVTIACQSSQSVYDNNNLAWFQQKPGQPPKRLIYSASTLASGVSSRFKGSGYGTQFTLTISDVQCDDAATYYCVGAFSGYIFVFGGGTEVVVK
notes: constant regions are not; also called 29E4 mAb; ETV1 29E4 mAb

Source: US20260227403A1 (HENRY M JACKSON FOUNDATION FOR THE ADVANCEMENT OF MILITARY …, published 2026)
